Key:
Format in all cases: in vivo
[1] = system: Arabidopsis thaliana T1 plants; test: Isoxaflutole tolerance of transgenic Arabidopsis thaliana T1 plants (spray, bleached leaf area grade, damage score); conditions: Table 11; for Classification and statistics of the grade of pesticide damage Grade 0: number of plants at grade 0; for Classification and statistics of the grade of pesticide damage Grade 1: number of plants at grade 1; for Classification and statistics of the grade of pesticide damage Grade 2: number of plants at grade 2; for Classification and statistics of the grade of pesticide damage Grade 3: number of plants at grade 3; for Scores: pesticide damage score;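 as to Scores: Weighted damage index from 0 to 100 where higher means more damage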
In short: (§1)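 Read-out: per-plant damage grade 0–3 from proportion of bleached leaf area at 7 DAT (1 <50%, 2 >50%, 3 100%). Plants were T1 transformants, glufosinate-selected, plus wild-type CK, sprayed 18 days post-sowing. Rates: topramezone 25–200, isoxaflutole 35–280, mesotrione 52.5–420 g ai/ha.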

[2] = system: Arabidopsis thaliana T1 plants; test: Topramezone tolerance of transgenic Arabidopsis thaliana T1 plants (spray, bleached leaf area grade, damage score); conditions: Table 10; for Classification and statistics of the grade of pesticide damage Grade 0: number of plants at grade 0; for Classification and statistics of the grade of pesticide damage Grade 1: number of plants at grade 1; for Classification and statistics of the grade of pesticide damage Grade 2: number of plants at grade 2; for Classification and statistics of the grade of pesticide damage Grade 3: number of plants at grade 3; for Scores: pesticide damage score
In short: as §1

[3] = system: Arabidopsis thaliana T1 plants; test: Mesotrione tolerance of transgenic Arabidopsis thaliana T1 plants (spray, bleached leaf area grade, damage score); parameters: Scores: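 damage score 0-100 computed as Σ(N×S)/(T×M)×100 over grades 0-3 with higher meaning more damage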; conditions: Table 12; for Classification and statistics of the grade of pesticide damage Grade 0: number of plants at grade 0; for Classification and statistics of the grade of pesticide damage Grade 1: number of plants at grade 1; for Classification and statistics of the grade of pesticide damage Grade 2: number of plants at grade 2; for Classification and statistics of the grade of pesticide damage Grade 3: number of plants at grade 3; for Scores: pesticide damage score
In short: as §1

B1: HPPDm-8-02: nucleotide sequence encoding AsHPPDm-A111T-K351N-F372A-F383W with mutated C-terminal; vector DBN11789 (nucleic acid)
DNA: ATGCCACCTACTCCAGCTACAGCTACTGGTGCTGCTGCTGCTGCCGTTACTCCTGAGCACGCTGCCAGGTCATTCCCCAGGGTGGTTCGCGTGAACCCCAGATCTGATAGGTTCCCAGTTCTGAGCTTCCACCATGTTGAGCTGTGGTGCGCTGATGCTGCTTCTGCTGCTGGCAGGTTCTCTTTCGCTCTTGGTGCTCCACTCGCTGCTAGATCTGATCTGTCTACAGGAAATAGCGCTCATGCCTCACTCCTGCTTCGCTCAGGTGCTTTGGCCTTCCTCTTCACCGCTCCATATGCTCCCCCACCTCAGGAGGCTGCTACTGCTGCTACTACAGCCTCCATTCCAAGCTTCTCAGCTGATGCCGCTAGAACCTTCGCTGCTGCTCATGGACTTGCCGTGAGGTCTGTTGGTGTTCGCGTGGCTGATGCTGCTGAGGCTTTCAGAGTTTCCGTTGCCGGCGGAGCTAGGCCAGCTTTCGCTCCTGCTGATTTGGGACATGGTTTCGGCCTGGCTGAGGTTGAGCTTTACGGTGACGTGGTTCTCCGCTTCGTGTCTTACCCAGATGAGACTGACCTGCCTTTCCTTCCCGGCTTCGAGAGAGTTTCCTCTCCTGGTGCCGTGGATTACGGCCTGACAAGGTTCGACCACGTGGTTGGAAACGTTCCCGAGATGGCTCCAGTGATCGATTACATGAAGGGCTTCCTTGGATTCCATGAGTTCGCCGAGTTCACTGCTGAGGACGTGGGAACCACTGAGTCCGGTTTGAACTCTGTGGTTCTCGCCAACAATTCTGAGGCTGTTTTGCTCCCTCTGAATGAGCCTGTGCATGGAACCAAGAGGAGAAGCCAGATTCAAACTTACCTGGAGTACCACGGTGGCCCTGGAGTTCAGCATATCGCCCTTGCTTCTAATGATGTGTTGCGCACACTCAGAGAGATGCGCGCCAGAACCCCCATGGGAGGTTTCGAGTTCATGGCCCCACCACAGGCTAAGTACTACGAGGGCGTTAGAAGGATTGCTGGAGACGTGTTGAGCGAGGAGCAGATCAATGAGTGCCAAGAGCTGGGTGTTCTTGTGGATAGGGATGACCAGGGCGTTCTGCTTCAAATTGCCACTAAGCCAGTGGGCGACCGCCCTACATTCTGGCTTGAGATGATTCAAAGAATCGGCTGCATGGAGAAGGATGAGGTTGGACAGGAGTACCAAAAGGGCGGATGCGGTGGCTTCGGAAAGGGTAACTTCAGCGAGTTGTTCAAGTCAATCGAGGAGTATGAGAAGACCTTGGAGGCCAAGCAGCTCGTGGGTTGA
modifications: mutated C-terminus; HPPDm-8-02 Nucleotide Sequence
notes: vector DBN11789
Highly resistant: Resistance evaluation ([1]; isoxaflutole 140 g ai/ha (2×)) | Resistance evaluation ([1]; isoxaflutole 280 g ai/ha (4×)) | Resistance evaluation ([2]; topramezone 100 g ai/ha (4×)) | Resistance evaluation ([2]; topramezone 200 g ai/ha (8×)) | Resistance evaluation ([3]; mesotrione 210 g ai/ha (2×)) | Resistance evaluation ([3]; mesotrione 420 g ai/ha (4×))
16: Classification and statistics of the grade of pesticide damage Grade 0 ([1]; isoxaflutole 140 g ai/ha (2×)) | Classification and statistics of the grade of pesticide damage Grade 0 ([1]; isoxaflutole 280 g ai/ha (4×)) | Classification and statistics of the grade of pesticide damage Grade 0 ([2]; topramezone 100 g ai/ha (4×)) | Classification and statistics of the grade of pesticide damage Grade 0 ([2]; topramezone 200 g ai/ha (8×)) | Classification and statistics of the grade of pesticide damage Grade 0 ([3]; mesotrione 210 g ai/ha (2×)) | Classification and statistics of the grade of pesticide damage Grade 0 ([3]; mesotrione 420 g ai/ha (4×))
0: Classification and statistics of the grade of pesticide damage Grade 1 ([1]; isoxaflutole 140 g ai/ha (2×)) | Classification and statistics of the grade of pesticide damage Grade 2 ([1]; isoxaflutole 140 g ai/ha (2×)) | Classification and statistics of the grade of pesticide damage Grade 3 ([1]; isoxaflutole 140 g ai/ha (2×)) | Scores ([1]; isoxaflutole 140 g ai/ha (2×)) | Classification and statistics of the grade of pesticide damage Grade 1 ([1]; isoxaflutole 280 g ai/ha (4×)) | Classification and statistics of the grade of pesticide damage Grade 2 ([1]; isoxaflutole 280 g ai/ha (4×)) | Classification and statistics of the grade of pesticide damage Grade 3 ([1]; isoxaflutole 280 g ai/ha (4×)) | Scores ([1]; isoxaflutole 280 g ai/ha (4×)) | Classification and statistics of the grade of pesticide damage Grade 1 ([2]; topramezone 100 g ai/ha (4×)) | Classification and statistics of the grade of pesticide damage Grade 2 ([2]; topramezone 100 g ai/ha (4×)) | Classification and statistics of the grade of pesticide damage Grade 3 ([2]; topramezone 100 g ai/ha (4×)) | Scores ([2]; topramezone 100 g ai/ha (4×)) | Classification and statistics of the grade of pesticide damage Grade 1 ([2]; topramezone 200 g ai/ha (8×)) | Classification and statistics of the grade of pesticide damage Grade 2 ([2]; topramezone 200 g ai/ha (8×)) | Classification and statistics of the grade of pesticide damage Grade 3 ([2]; topramezone 200 g ai/ha (8×)) | Scores ([2]; topramezone 200 g ai/ha (8×)) | Classification and statistics of the grade of pesticide damage Grade 1 ([3]; mesotrione 210 g ai/ha (2×)) | Classification and statistics of the grade of pesticide damage Grade 2 ([3]; mesotrione 210 g ai/ha (2×)) | Classification and statistics of the grade of pesticide damage Grade 3 ([3]; mesotrione 210 g ai/ha (2×)) | Scores ([3]; mesotrione 210 g ai/ha (2×)) | Classification and statistics of the grade of pesticide damage Grade 1 ([3]; mesotrione 420 g ai/ha (4×)) | Classification and statistics of the grade of pesticide damage Grade 2 ([3]; mesotrione 420 g ai/ha (4×)) | Classification and statistics of the grade of pesticide damage Grade 3 ([3]; mesotrione 420 g ai/ha (4×)) | Scores ([3]; mesotrione 420 g ai/ha (4×))
